Settings: phosphorylation at S486

SGK3: AZD8055 (mTOR catalytic inhibitor, 0.1 uM, 1 h)
enzymatic_activity: decreases

Reference: PMC5007552
